Assay results published in US20210254073A1.

Legend:
[1] = target: human Heat Shock Factor 1 (HSF1) tagged with GFP (Homo sapiens; Aequorea victoria) (UniProt Q00613); assay: AptA-MS: GFP-aptamer pull-down of HSF1-GFP from HCT116 lysate, mass spectrometry, SAINT probability score of interaction
[2] = target: human Heat Shock Factor 1 (HSF1) tagged with GFP (Homo sapiens; Aequorea victoria) (UniProt Q00613); assay: AptA-MS of HSF1-GFP from non-heat-shocked HCT116 cells, SAINT probability score of interaction
[3] = target: human Heat Shock Factor 1 (HSF1) tagged with GFP (Homo sapiens; Aequorea victoria) (UniProt Q00613); assay: AptA-MS of HSF1-GFP from heat-shocked HCT116 cells, SAINT probability score of interaction

Chain of UniProt Q00613 (Q00613 whole entry): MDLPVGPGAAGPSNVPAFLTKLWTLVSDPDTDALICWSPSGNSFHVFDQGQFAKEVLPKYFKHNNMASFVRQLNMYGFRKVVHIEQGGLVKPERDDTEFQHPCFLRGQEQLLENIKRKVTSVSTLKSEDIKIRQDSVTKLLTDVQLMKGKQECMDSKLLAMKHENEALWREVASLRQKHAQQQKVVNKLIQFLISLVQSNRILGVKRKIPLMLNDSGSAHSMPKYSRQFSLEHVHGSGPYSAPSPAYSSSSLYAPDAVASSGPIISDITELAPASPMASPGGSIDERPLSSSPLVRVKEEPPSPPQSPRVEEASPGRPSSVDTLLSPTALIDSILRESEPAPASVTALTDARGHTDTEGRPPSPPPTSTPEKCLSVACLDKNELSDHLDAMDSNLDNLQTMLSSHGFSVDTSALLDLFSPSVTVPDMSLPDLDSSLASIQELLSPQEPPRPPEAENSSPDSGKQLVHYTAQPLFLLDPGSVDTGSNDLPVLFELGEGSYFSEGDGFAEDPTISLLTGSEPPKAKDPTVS

Substance | SAINT score [1] | SAINT score [3] | further results
Elongation Factor 1-alpha 1 (from UniProt P68104 2-462) | 0.69 | – | –
HSF2 (from UniProt Q03933 1-536) | – | – | SAINT score [2]: 0.78
translation elongation factor HBS1 (from UniProt Q9Y450 1-684) | – | 0.92 | –
Elongation Factor 1-alpha 2 (from UniProt Q05639 2-463) | 0.66 | – | –
Thymidylate Kinase (from UniProt P23919 2-212) (enzyme) | – | 0.98 | –
